# How the values were obtained:
# [1] = biological target: human α-Synuclein pre-formed fibrils (human) (UniProt P37840); assay: cell-based or functional assay
# [2] = biological target: Lewy body α-Synuclein (human) (UniProt P37840); assay: IHC, human amygdala; OD of Lewy bodies / OD of tissue
Substance,% Inhibition (primary neuron assay) [1] [%],LB Discrimination Index [2]
IgG (antibody),0,–
Syn303 (antibody),–,2.1
Syn211 (antibody),94.7,–

# — US20230025707A1
